Data: patent publication US10196447B2, “Anti-vascular endothelial growth factor receptor 2 (VEGFR2) antibody and methods of use thereof for detecting VEGFR2 and for inhibiting tumor growth, tumor angiogenesis and/or inducing cancer cell cytotoxicity” (Academia Sinica, priority 2015, dated 2019)
Residue numbers refer to the chain shown, from its start.

Assays:
[1] = test system: PC-3 xenografts; assay: PC-3 human prostate cancer xenograft model; type: in vivo, NOD/SCID mice
Experimental: Procedures involving animals and their care were conducted according to the guidelines of the Academia Sinica Institutional Animal Care and Utilization Committee in compliance with national and international laws and policies. Non-obese diabetic-severe combined immunodeficiency (NOD/SCID) mice were purchased from the National Laboratory Animal Center (Taiwan). The human prostate cancer xenograft tumor model was developed by subcutaneously injecting 2×10^6 PC-3 cells into the dorsal flank of a six-week old male mouse. Animals were monitored daily for general health, and body weights were measured twice weekly. Tumor size was measured with slide calipers and calculated as length×width^2×0.52. […] An antibody dose of 20 mg/kg was injected twice a week for four weeks. For combination therapy, docetaxel (ScinoPharm Taiwan) was also intravenously administered at a dose of 5 mg/kg once a week for three weeks. At the end of the experiment, tumor tissue and visceral organs were removed and fixed for histological analysis.
For tumor blood vessel studies, samples were fixed in OCT. Frozen blocks were cut into 50 μm sections, and frozen tumor tissue sections were fixed with 1% paraformaldehyde, permeabilized with 0.1% TRITON™-X 100, blocked with normal horse serum (Vector), and then incubated for 1 hour at room temperature (RT) with a 1:100 dilution of the primary antibody (rat anti-mouse CD31 (PECAM-1); BD Bioscience). Subsequently, the tissue sections were incubated with Alexa 549-conjugated goat anti-rat antibody (Invitrogen) at room temperature for 1 hour. Nuclei were stained with DAPI, and sections were then mounted with fluorescent mounting solution. Immunofluorescent images were acquired using a Zeiss Axiovert 200M microscope. Positive areas of CD31 endothelial cells were quantified by pixel area counting and normalized with DAPI staining using ImageJ software under low power magnification.
The frozen tumor tissue sections were fixed with 1% paratbrmaldehyde and permeabilized with 0.1% TRITON™-X 100, before being incubated with terminal deoxynucleotidyltransferase-mediated dUTP nick end labeling reaction mixture (Roche Diagnostics) at 37° C. for 1 hour. After washing three times with PBS, the slides were incubated with FITC-anti-DIG antibody (1:2000) and DAPI (1:500). Slides were mounted with mounting solution and visualized under a fluorescent microscope. Slides were independently examined by three individuals. Areas with TUNEL-positive cells were quantified by pixel area counting, and normalized to DAPI staining using ImageJ software.

[2] = test system: HL-60 leukemia xenografts; assay: HL-60 leukemia xenograft model; type: in vivo, NSG mice
Experimental: For systemic leukemia engraftment studies, NOD/SCID/IL2Rγ−/− (NSG) mice were obtained from the Animal Center of the Institute of Cellular and Organismic Biology, Academia Sinica. Six-week old females were intravenously injected with 5×10^6 HL-60 cells through the tail vein. Animals were monitored daily for general health, and body weights were measured twice weekly. […] Mice were observed daily for signs of toxicity, and the survival times were recorded. At the end-point of treatment, the visceral organs of each mouse were removed and fixed for further histological examination.
Tumors and indicated organs were dissected from mice and fixed in 4% paraformaldehyde overnight. Fixation and processing of specimens were performed in accordance with standard procedures. The specimens were embedded in paraffin and cut into […] sections. Rehydrated paraffin-embedded tissue sections were stained with Mayer's hematoxylin solution (Wako) for 5 minutes and washed with water for 1-2 minutes. The slides were then stained with eosin solution (Wako) for 10 minutes. Tissues were visualized with Tissue Gnostics microscopes.

[3] = test system: VEGFR2 signaling pathway; assay: Western blot of VEGF-A-induced phosphorylation in HUVECs; type: cell-based, human; settings: 100 nM antibody
From the text: Western blots were pertbrmed using standard protocols, as previously described. The primary antibodies were purchased from Cell Signaling Technology and used at a 1,000-fold dilution for protein detection; the antibodies used are as follows: anti-VEGFR2 (clone 55B11), anti-phospho-VEGFR2 (Tyr1175; clone 19A10), anti-FAK, anti-phospho-FAK (Tyr397; cloneD20B1), anti-p42/44 MAPK, anti-phospho-p42/44 MAPK (Thr202/Tyr204; cloneD13.14.4E), anti-Akt, and anti-phospho-Akt (Ser473).

[4] = target: murine VEGFR2 protein (Mus musculus, UniProt P35918, DEL223-227); assay: Cross-reactivity with murine VEGFR2; type: binding
murine VEGFR2 protein, sequence (P35918 with tags, fused parts or gaps DEL223-227): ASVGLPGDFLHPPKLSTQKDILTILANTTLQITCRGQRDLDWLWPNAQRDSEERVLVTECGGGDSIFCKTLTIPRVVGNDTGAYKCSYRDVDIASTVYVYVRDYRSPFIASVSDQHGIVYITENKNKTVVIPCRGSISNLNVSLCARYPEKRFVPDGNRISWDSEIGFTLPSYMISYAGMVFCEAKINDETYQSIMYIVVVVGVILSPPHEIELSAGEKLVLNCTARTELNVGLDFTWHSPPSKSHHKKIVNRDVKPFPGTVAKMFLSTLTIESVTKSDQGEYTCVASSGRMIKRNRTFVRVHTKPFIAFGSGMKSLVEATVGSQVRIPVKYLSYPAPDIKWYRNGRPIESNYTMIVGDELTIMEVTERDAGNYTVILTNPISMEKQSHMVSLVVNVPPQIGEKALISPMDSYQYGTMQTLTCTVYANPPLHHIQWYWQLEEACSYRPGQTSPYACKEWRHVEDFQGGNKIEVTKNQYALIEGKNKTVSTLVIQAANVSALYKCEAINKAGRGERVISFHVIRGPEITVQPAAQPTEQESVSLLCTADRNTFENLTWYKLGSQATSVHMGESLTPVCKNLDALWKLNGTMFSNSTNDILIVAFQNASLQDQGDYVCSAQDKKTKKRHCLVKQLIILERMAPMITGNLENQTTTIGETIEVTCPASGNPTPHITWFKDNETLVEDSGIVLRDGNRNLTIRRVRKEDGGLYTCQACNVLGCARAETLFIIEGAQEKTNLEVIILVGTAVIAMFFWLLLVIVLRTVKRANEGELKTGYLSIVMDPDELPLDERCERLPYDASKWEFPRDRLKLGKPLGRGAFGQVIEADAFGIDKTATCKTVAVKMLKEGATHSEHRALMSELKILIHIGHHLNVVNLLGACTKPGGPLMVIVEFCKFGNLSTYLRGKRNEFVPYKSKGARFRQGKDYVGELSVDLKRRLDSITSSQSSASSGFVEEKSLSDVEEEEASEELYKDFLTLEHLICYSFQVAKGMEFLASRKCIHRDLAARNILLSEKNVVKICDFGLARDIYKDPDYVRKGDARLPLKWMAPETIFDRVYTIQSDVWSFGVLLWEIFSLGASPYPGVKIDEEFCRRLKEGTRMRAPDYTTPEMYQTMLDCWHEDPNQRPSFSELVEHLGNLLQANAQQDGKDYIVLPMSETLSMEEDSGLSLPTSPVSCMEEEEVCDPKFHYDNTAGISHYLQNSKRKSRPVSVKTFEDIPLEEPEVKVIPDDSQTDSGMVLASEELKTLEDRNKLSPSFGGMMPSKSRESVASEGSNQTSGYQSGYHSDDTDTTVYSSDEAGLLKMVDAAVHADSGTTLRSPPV

[5] = test system: Met-Fc; assay: Phage clone ELISA on control protein; type: binding
Experimental: (§1) The selected phages were further examined by ELISA screening. The 96-well plates were coated with 1 μg/ml of VEGFR2-Fc, Met-Fc (R&D), or BSA (Sigma) protein in 0.1 M sodium bicarbonate overnight at 4° C. After blocking with 1% BSA in PBS (w/v) for 2 hr at room temperature, 70-randomly selected phage clones were added to the plates at a 1:2 dilution in 1% BSA, and incubated for 1 hr at room temperature. Following washes with PBST, the plates were incubated with a 1:2000 dilution of horseradish peroxidase (HRP)-conjugated mouse anti-M13 phage antibody (GE) for 1 hr. After washing with PBST, the colorimetric reaction was developed with the peroxidase substrate ortho-phenylenediamine (OPD; Sigma) plus H2O2 for 15 min, and then terminated by the addition of 3 N HCl. The absorbance at 490 nm was determined using a microplate reader (SpectraMax, Molecular Devices). Plasmid DNA of positive clones were isolated and sequenced using the pCANTAB5 sequencing primer set.

[6] = target: T1, VEGFR2-Fc (Homo sapiens, UniProt P35968); assay: Screening of anti-VEGFR2 phage clones by ELISA; type: binding; settings: 1×10^9 cfu phage titer
T1 construct: purchased R&D Systems
T1 sequence (P35968 with tags, fused parts or gaps limits assumed): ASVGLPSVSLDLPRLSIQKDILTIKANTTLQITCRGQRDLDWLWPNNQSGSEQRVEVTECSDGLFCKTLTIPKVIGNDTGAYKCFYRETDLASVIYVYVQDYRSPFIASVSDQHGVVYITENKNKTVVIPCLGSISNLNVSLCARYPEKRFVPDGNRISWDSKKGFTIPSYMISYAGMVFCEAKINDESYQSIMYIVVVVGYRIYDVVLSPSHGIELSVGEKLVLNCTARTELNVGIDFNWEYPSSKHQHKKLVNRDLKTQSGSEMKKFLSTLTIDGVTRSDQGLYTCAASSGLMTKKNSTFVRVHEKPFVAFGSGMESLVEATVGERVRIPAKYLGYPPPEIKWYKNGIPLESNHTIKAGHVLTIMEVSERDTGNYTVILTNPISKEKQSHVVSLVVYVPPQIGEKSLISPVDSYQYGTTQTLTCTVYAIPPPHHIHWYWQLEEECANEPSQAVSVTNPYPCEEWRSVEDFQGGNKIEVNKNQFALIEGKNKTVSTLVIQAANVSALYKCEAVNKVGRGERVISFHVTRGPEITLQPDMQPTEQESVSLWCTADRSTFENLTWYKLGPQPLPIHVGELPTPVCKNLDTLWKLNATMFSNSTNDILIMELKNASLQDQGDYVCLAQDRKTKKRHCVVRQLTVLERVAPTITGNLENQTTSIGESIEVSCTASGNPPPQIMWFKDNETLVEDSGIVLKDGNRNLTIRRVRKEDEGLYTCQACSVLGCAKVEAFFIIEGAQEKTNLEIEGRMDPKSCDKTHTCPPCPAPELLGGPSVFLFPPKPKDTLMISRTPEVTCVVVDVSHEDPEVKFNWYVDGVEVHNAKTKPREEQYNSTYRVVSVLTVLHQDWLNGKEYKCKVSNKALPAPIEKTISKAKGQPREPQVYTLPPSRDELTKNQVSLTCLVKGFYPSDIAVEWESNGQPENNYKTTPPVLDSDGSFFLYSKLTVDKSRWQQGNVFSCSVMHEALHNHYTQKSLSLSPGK
Experimental: as §1

[7] = test system: VEGFR2 on the cell surface of HUVEC; assay: Flow cytometry binding to HUVECs; type: cell-based, human; settings: FACS; 1×10^10 cfu
Experimental: About 1×10^4 HUVEC were incubated with the selected anti-VEGFR2 phage clones at 4° C. for 1 hour in FACS buffer (PBS containing 1% fetal bovine serum). After the cells were washed with FACS buffer, they were first incubated with mouse anti-M13 phage Ab for 1 hr at 4° C., and then with R-phycoerythrin-conjugated goat anti-mouse IgG (Jackson Immuno Research) for 30 min at 4° C. Flow cytometry was performed with a FACSCantoII (BD), and emission fluorescence intensity was measured with FACS Diva software (BD) to quantitatively compare binding affinities.

[8] = target: T1, VEGFR2-Fc; assay: ELISA binding of R2S12 and R2S12-AF scFv to VEGFR2-Fc (affinity maturation)
Experimental: (A) Affinity maturation for R2S12. […] Subsequently, the beads were washed four times with PBS containing 1% TWEEN™ 20. After four rounds of biopanning, the recovery rate of the phages was increased by 929-fold over that of the first round. (B) Comparison of the binding activity of the indicated concentrations of R2S12 and R2S12-AF scFv to VEGFR2-Fc protein, as assayed by ELISA. Error bar, SE.
Affinity maturation was performed as previously described. […] This synthetic library was used to perform biopanning for VEGFR2-Fc-immobilized DYNABEADS®. After four to five rounds of stringent in vitro biopanning, positive clones were screened and identified by ELISA.

[9] = 20 mg/kg i.v. twice weekly from day 3

Molecule: IMC-1121B: FDA-approved anti-VEGFR2 human antibody (Ramucirumab), expressed by the applicant as human IgG1 [reference compound]
- tumor growth reduction ([1]; by day 38, antibody 20 mg/kg i.v. twice a week, docetaxel 5 mg/kg i.v. once a week): 45%
- changes in body weight during the treatment period ([1]; compared to the NHIgG group or docetaxel alone): no significant changes
- docetaxel-induced toxicity (body weight as surrogate) ([1]; in combination with docetaxel): do not enhance
- median survival [2, 9]: 43 days
- survival time [2, 9]: 56 days
- lymph nodes with leukemia infiltration ([2]; n=9 per group): five of nine
- FAK phosphorylation [3]: only marginally reduced
- cross-reaction / binding to murine VEGFR2 [4]: not

B1: R2PC12: phage-displayed human scFv clone binding VEGFR2; VH CDR1-3 SEQ ID NO: 6-8, VL CDR1/CDR3 SEQ ID NO: 9, 10 (antibody, V domains shown)
VH: QVNLRESGGGLVKPGGSLRLSCAASGFTFGSYTMNWVRQAPGKGLEWVASITSGSSYIFYTDSVKGRFTISRDNSRSSLFLQMNSLRAEDTAIYYCARGSASAFDIWGQGTMVTVSS
VL: DIQMTQSPSSLSASVGDRVTITCKASDDIINYLNWYQQKPGEAPKLLIYDASILETGVPSRFSGSGSGTDFTFTISSLQPEDIATYYCQQYDILPLTFGGGTKLEIK
- binding of phage clones to c-Met-Fc control protein [5]: not
- binding of phage clones to VEGFR2-Fc [6]: bind highly
- binding of phage clones to VEGFR2 on HUVEC cell surface [7]: greatest reactivity

B2: R2S12AF: affinity-matured scFv clone of R2S12; VH SEQ ID NO: 76, VL SEQ ID NO: 78, VL-CDR3 QQLDDIPIT (antibody, V domains shown)
VH: B1 VH
VL: B1 VL with Y91L, I93D, L94I, L96I
modifications: scFv linker; VH region of R2S12 or R2S12-AF; VL region of R2S12AF
- binding activity to VEGFR2-Fc compared with parental clone R2S12 [8]: superior binding activity
